Legend:
Assay in all cases: ELISA, lectin-captured E1E2 lysate, Ab 1 ug/ml;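 further: E1E2 captured on Galanthus nivalis lectin-coated plates, bound test antibody read out by an HRP-linked secondary antibody and TMB colour development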
[1] = target: E1E2 complex (H77) with E1 mutation N305A/N234A (HCV genotype 1a, isolate H77, UniProt P27958 192-383; P27958 384-746)
[2] = target: E1E2 complex (H77) with E1 mutation N305A/N325A (HCV genotype 1a, isolate H77, UniProt P27958 192-383; P27958 384-746)
[3] = target: E1E2 complex (H77) with E1 mutation V194A (HCV genotype 1a, isolate H77, UniProt P27958 192-383; P27958 384-746)
[4] = target: E1E2 complex (H77) with E1 mutation Y201A (HCV genotype 1a, isolate H77, UniProt P27958 192-383; P27958 384-746)
[5] = target: E1E2 complex (H77) with E1 mutation T204A (HCV genotype 1a, isolate H77, UniProt P27958 192-383; P27958 384-746)
[6] = target: E1E2 complex (H77) with E1 mutation D206A (HCV genotype 1a, isolate H77, UniProt P27958 192-383; P27958 384-746)
[7] = target: E1E2 complex (H77) with E1 mutation N209A (HCV genotype 1a, isolate H77, UniProt P27958 192-383; P27958 384-746)
[8] = target: E1E2 complex (H77) with E1 mutation W239A (HCV genotype 1a, isolate H77, UniProt P27958 192-383; P27958 384-746)
[9] = target: E1E2 complex (H77) with E1 mutation P244A (HCV genotype 1a, isolate H77, UniProt P27958 192-383; P27958 384-746)
[10] = target: E1E2 complex (H77) with E1 mutation H261A (HCV genotype 1a, isolate H77, UniProt P27958 192-383; P27958 384-746)
[11] = target: E1E2 complex (H77) with E1 mutation A274G (HCV genotype 1a, isolate H77, UniProt P27958 192-383; P27958 384-746)
[12] = target: E1E2 complex (H77) with E1 mutation D279A (HCV genotype 1a, isolate H77, UniProt P27958 192-383; P27958 384-746)
[13] = target: E1E2 complex (H77) with E1 mutation N196A/N209A (HCV genotype 1a, isolate H77, UniProt P27958 192-383; P27958 384-746)
[14] = target: E1E2 complex (H77) with E1 mutation F293A (HCV genotype 1a, isolate H77, UniProt P27958 192-383; P27958 384-746)
[15] = target: E1E2 complex (H77) with E1 mutation Y309A (HCV genotype 1a, isolate H77, UniProt P27958 192-383; P27958 384-746)
[16] = target: E1E2 complex (H77) with E1 mutation H316A (HCV genotype 1a, isolate H77, UniProt P27958 192-383; P27958 384-746)
[17] = target: E1E2 complex (H77) with E1 mutation R317A (HCV genotype 1a, isolate H77, UniProt P27958 192-383; P27958 384-746)
[18] = target: E1E2 complex (H77) with E1 mutation N196A/N305A (HCV genotype 1a, isolate H77, UniProt P27958 192-383; P27958 384-746)
[19] = target: E1E2 complex (H77) with E1 mutation M323A (HCV genotype 1a, isolate H77, UniProt P27958 192-383; P27958 384-746)
[20] = target: E1E2 complex (H77) with E1 mutation P328A (HCV genotype 1a, isolate H77, UniProt P27958 192-383; P27958 384-746)
[21] = target: E1E2 complex (H77) with E1 mutation N196A/N325A (HCV genotype 1a, isolate H77, UniProt P27958 192-383; P27958 384-746)
[22] = target: E1E2 complex (H77) with E1 mutation G354A (HCV genotype 1a, isolate H77, UniProt P27958 192-383; P27958 384-746)

B1: N4 IgG (antibody, V domains shown)
VH: VQLLEQSGPEVKKPGDSLRISCKMSGDSLVTTWIGWVRQKPGQGLEWMGIINPGDSSTNIYPGDSATRYGPSFQGQVTISIDKSTSTAYLQWNNVKASDTGIYYCARHVPVPISGTFLWREREMHDFGYFDDWGQGTLVIVSS
VL: ELTLTQSPGTLSLSPGERATLSCRASQSVSNNYLAWYQQKPGQAPRLLIYGASSRATGIPDRFSGSGSGTGFTLIISRLEPEDFAVYYCQQYGSSSITFGQGTRLEIKR
notes: also called IgG N4
For B1, the “Binding relative to wt (%)” value [1] was 30%, the “Binding relative to wt (%)” value [2] was 74% and the “Binding relative to wt (%)” value [3] was 109%. The “Binding relative to wt (%)” value [4] was 7%, the “Binding relative to wt (%)” value [5] was 24% and the “Binding relative to wt (%)” value [6] was 17%. For the same binder, the “Binding relative to wt (%)” value [7] was 117%, the “Binding relative to wt (%)” value [8] was 67% and the “Binding relative to wt (%)” value [9] was 95%. For the same binder, the “Binding relative to wt (%)” value [10] was 106%, the “Binding relative to wt (%)” value [11] was 71% and the “Binding relative to wt (%)” value [12] was 31%. For the same binder, the “Binding relative to wt (%)” value [13] was 21%, the “Binding relative to wt (%)” value [14] was 95% and the “Binding relative to wt (%)” value [15] was 32%. For the same binder, the “Binding relative to wt (%)” value [16] was 70%, the “Binding relative to wt (%)” value [17] was 98% and the “Binding relative to wt (%)” value [18] was 4%. For the same binder, the “Binding relative to wt (%)” value [19] was 99%, the “Binding relative to wt (%)” value [20] was 127% and the “Binding relative to wt (%)” value [21] was 54%. For the same binder, the “Binding relative to wt (%)” value [22] was 90%.

— patent US20110311550A1 (Scripps Research, published 2011)
